Reference: patent US20040091907A1 (SUGEN, published 2004)

Columns and labels:
[1] = target: T1, Glutathione-s-transferase (GST) fused PAK4 (residues 291-591) (human, UniProt O96013 291-591); test: phage display screen, GST-PAK4 (291-591) on glutathione beads, MCF7 cDNA library
T1 construct: Bait of the phage display screen; the paragraphs that tell the kinase results say only PAK4; also called PAK4 kinase; not shown: glutathione-S-transferase (GST), protein product of the SJ26 gene, fusion partner from pGEX-4T
From the text: The phage display hits isolated in the screen corresponded to in-frame fusions derived from several distinct genes. One fragment was derived from the Maguin-2-like gene. Two other hits were derived from the GEF-H1S splice variant of GEF-H1.
This expression vector allowed production and expression of a gene appropriately inserted, as a fusion protein where the fusion partner is the protein product of the SJ26 gene glutathione-s-transferase (GST). The fusion partner GST allows for affinity immobilization on glutathione sepharose 4B matrix (Amersham Biosciences Cat # 17-0756-01) also known as glutathione beads. The PAK4 polypeptide immobilized to these beads was incubated with a lysate containing phage particles expressing a library of peptides derived from MCF7 (breast carcinoma tissue culture cells available from ATCC, USA) cDNA. See, Zozulya et al., Nat. Biotechnol., 17(12): p. 1193-8, 1999. Upon sequencing many of the candidates obtained in this screen, the GEF-H1S polypeptide was discovered in the clone designated 13-8. Sequencing was performed on a ABI prizm machine using standard methods provided by the manufacturer (Applied Biosystems, USA).

[2] = target: T2, amino-terminal regulatory domain of PAK4 alone (amino acids 1-309) (human, UniProt O96013 1-309); test: GST pull-down on glutathione beads from 293T lysate, myc immunoblot
T2 construct: Over-expressed in 293T cells, used as cell lysate
T2 sequence (looked up): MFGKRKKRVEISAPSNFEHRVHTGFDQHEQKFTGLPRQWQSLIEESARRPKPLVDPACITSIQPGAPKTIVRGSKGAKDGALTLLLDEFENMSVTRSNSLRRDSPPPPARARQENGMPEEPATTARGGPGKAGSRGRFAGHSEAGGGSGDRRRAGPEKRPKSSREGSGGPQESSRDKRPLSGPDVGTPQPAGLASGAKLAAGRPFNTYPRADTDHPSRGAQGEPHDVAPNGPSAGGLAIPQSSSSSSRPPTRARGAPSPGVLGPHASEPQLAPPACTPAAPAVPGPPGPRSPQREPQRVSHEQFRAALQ
Experimental: (§1) An equivalent amount of beads and excess lysates (500 ug) were used. Eluates of beads and total lysates were analysed by SDS-PAGE and immunoblotted with myc or GEF-H1 antiserum; (c) represents a PAK4 gene schematic outlining the regions of PAK4 used to identify the GEF-H1 interaction domain (GID). d, alignment of the GID defined by the minimal binding region of PAK4 with PAK5 and PAK6.
These fusion proteins were bound to glutathione beads and utilized in binding assays with 293T lysates expressing exogenous PAK4.
The GST immobilized GEF-H1S polypeptide was used to conduct immunoprecipitation from the 293T cell extracts. The resulting protein complexes on the beads were identified by separating on SDS-PAGE followed by Western blotting to identify proteins that are present. The Western blot technique (Renart et al., Methods Enzymol., 104:455-60, 1984) is universally used to identify proteins using specific immunoreagents like antibodies. […] PAK4 was not present after immunoprecipitation with immobilized fusion partner GST. This interaction was limited by the presence or absence of GEF-H1S.

GFP-GEF-H1 = target: T3, GFP-GEF-H1 (human, UniProt Q92974 93-986); test: biotinylated peptide on streptavidin beads, pull-down from 293T lysate, GEF-H1 immunoblot
T3 construct: The legend says GFP-GEF-H1, the text GEF-H1S; also called GEF-H1S; EGFP-GEF-H1S; not shown: EGFP from vector pEGFP-C1 (Clontech)
T3 sequence: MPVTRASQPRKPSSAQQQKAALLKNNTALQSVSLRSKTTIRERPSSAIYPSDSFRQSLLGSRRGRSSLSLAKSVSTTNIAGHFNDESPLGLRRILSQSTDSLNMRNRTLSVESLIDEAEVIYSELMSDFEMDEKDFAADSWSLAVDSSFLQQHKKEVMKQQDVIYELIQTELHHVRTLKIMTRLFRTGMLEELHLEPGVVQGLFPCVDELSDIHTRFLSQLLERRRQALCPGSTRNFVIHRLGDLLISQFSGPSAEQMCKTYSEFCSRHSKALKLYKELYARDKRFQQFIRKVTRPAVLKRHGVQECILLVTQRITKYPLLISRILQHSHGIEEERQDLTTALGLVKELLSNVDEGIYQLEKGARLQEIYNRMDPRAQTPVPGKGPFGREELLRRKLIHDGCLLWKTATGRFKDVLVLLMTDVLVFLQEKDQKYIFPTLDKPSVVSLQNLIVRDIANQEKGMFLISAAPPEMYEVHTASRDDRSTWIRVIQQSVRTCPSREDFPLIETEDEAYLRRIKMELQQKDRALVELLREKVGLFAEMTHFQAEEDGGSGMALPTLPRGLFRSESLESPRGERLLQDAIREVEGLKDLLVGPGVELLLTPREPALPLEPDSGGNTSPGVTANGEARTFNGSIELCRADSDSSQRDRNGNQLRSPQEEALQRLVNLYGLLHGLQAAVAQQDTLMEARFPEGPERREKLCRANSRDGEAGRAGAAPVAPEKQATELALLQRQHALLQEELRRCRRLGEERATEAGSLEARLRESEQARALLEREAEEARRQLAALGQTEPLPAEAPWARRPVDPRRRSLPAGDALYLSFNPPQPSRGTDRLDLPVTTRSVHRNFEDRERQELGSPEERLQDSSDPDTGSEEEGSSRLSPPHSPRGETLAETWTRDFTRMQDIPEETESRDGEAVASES
Experimental: as §1, with “FIG. 1: Direct binding of GEF-H1 to PAK4. […] An” for “An”
Biotinylated peptides derived from the N-terminal region of PAK4 sequence were used to further map the GEF-H1 binding site. […] Based on the homology within the GID of PAK4 it is possible that PAK5 and PAK6 also interact with GEF-H1 or related proteins.

B1: GEF-H1S polypeptide of phage display clone 13-8 (amino acids 763-921) (other)
chain: LRESEQARALLEREAEEARRQLAALGQTEPLPAEAPWARRPVDPRRRSLPAGDALYLSFNPPQPSRGTDRLDLPVTTRSVHRNFEDRERQELGSPEERLQDSSDPDTGSEEEGSSRLSPPHSPRGETLAETWTRDFTRMQDIPEETESRDGEAVASES
notes: Two hits came from GEF-H1S; only this one has stated limits; also called phage clone 13.8; GEF-H1 phage display hit; not shown: phage display fusion partner
B1: binds [1].

B2: GST-GEF-H1S (aa763-921) (other)
chain: LRESEQARALLEREAEEARRQLAALGQTEPLPAEAPWARRPVDPRRRSLPAGDALYLSFNPPQPSRGTDRLDLPVTTRSVHRNFEDRERQELGSPEERLQDSSDPDTGSEEEGSSRLSPPHSPRGETLAETWTRDFTRMQDIPEETESRDGEAVASES
notes: not shown: glutathione-S-transferase (GST), protein product of the SJ26 gene, fusion partner from pGEX-4T
B2: no binding [2].

B3: biotinylated PAK4 peptide, amino acids 291-355 (peptide, UniProt O96013 291-355, looked up)
peptide: SPQREPQRVSHEQFRAALQLVVDPGDPRSYLDNFIKIGEGSTGIVCIATVRSSGKLVAVKKMDLR
modifications: biotinylated (position not given)
notes: Linked to streptavidin beads
B3: no binding (GFP-GEF-H1).
